Data published in article PMC2873477, “Reconstruction of xylose utilization pathway and regulons in Firmicutes” (BMC Genomics, 2010).

Columns and labels:
[1] = biological target: T1, XylR (Clostridium acetobutylicum ATCC 824) (UniProt Q97D10); test: EMSA; details: 10 mM Tris pH 7.5, 50 mM KCl, 1 mM DTT, 2.5% glycerol, 5 mM MgCl2, 0.05% NP-40, 2 ug salmon sperm DNA in 20 ul, 28 C 20 min; 6% native PAGE 0.5x TBE at 4 C
T1 sequence: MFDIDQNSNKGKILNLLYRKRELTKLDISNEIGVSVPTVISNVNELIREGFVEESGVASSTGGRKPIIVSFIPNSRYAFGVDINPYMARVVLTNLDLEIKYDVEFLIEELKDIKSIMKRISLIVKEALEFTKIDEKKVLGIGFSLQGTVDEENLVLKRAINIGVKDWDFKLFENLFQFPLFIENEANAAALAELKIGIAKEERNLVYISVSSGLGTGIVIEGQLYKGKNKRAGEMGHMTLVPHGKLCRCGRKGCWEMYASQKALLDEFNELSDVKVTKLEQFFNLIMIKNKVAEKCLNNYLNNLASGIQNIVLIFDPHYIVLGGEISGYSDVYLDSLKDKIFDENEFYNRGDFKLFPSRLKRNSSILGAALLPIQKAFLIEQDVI

[2] = biological target: T2, XylB (Clostridium acetobutylicum, UniProt Q97FW4); test: coupled pyruvate kinase / lactate dehydrogenase assay, NADH at […] nm; assay type: biochemical; details: 50 mM Tris pH 7.5, 10 mM MgSO4, 1.2 mM ATP, 1 mM D-xylulose
T2 construct: full-length coding region, N-terminal His6 tag (pET28a), E. coli BL21(DE3), Ni-NTA purified
T2 sequence (Q97FW4 1-500): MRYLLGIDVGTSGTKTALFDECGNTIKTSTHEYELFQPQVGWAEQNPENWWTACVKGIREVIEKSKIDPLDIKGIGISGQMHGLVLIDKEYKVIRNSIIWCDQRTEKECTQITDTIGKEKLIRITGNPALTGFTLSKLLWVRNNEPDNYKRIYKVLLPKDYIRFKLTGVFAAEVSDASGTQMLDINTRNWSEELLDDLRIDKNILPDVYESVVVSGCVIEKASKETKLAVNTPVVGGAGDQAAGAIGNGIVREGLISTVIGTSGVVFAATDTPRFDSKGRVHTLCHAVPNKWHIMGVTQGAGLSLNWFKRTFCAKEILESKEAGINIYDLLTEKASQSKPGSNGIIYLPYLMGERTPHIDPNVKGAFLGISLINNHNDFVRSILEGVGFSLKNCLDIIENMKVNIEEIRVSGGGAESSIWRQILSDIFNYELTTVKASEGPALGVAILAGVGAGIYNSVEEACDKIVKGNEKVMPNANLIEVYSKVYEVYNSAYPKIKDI

Molecule	binding [1]	coupled pyruvate kinase / lactate dehydrogenase assay, NADH at 340 nm [2]
CTCCCCATATAATTTAAATTGGTTTTATTTAAAAAATATCTTACCAATATGATTTAAACTTCTCTAATAAATATATGTTTTTAAAGTTTGTTTAATAAGTTTTTTAGATAATCTACTCTTTAAATAAAAGCGCTCCTACTTTTAACTATTTATATATCTTTTATTTTAGGATAAGCTGAA (double strand) [CAC2611-xylA-II upstream fragment]	binds	
Nc1ncnc2c1ncn2[C@@H]1O[C@H](COP(=O)(O)OP(=O)(O)OP(=O)(O)O)[C@@H](O)[C@H]1O [ATP]		coupling the formation of ADP to the oxidation of NADH to NAD^+
AATCAAACCCCCTTAATTTTAAATAACTTTTTAAATATCCTTTAATAAGTCTATTTTACTTTTTTTACCTCCTACAGTCAATATGTTTTTGTAAACTTTTTCATTTTATTTATATAATGGCTTATATGGCACTGCATTTCACATAAAAATTGTAATAAAAAAAACTGCCCTTAAATTTTC (double strand) [xylB upstream fragment]	binds	
CACCAACCTTAATCACTAGTATTTTACTTTACCTTCATATTGTACCATATACTATATCCCCACAAAAGCCTTTATAAAGTTGTTTTATAAAGTATATATACTATGTATATTTTTTCTTATATAGTTTTAATACAAAAATGAAGTAAAGATATCAATTATATATCTTTACTTCACTTACGT (double strand) [xylR upstream fragment]	binds	
